Test [1] addresses T1, O4.
T1 chain: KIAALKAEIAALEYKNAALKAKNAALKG
Briefly: two-hybrid library CC0.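 Note: natural log of median RNA to DNA barcode read ratio; higher means stronger binding.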 To be noted: mean of both orientations.

In test [2] the target is T2, O5.
T2 chain: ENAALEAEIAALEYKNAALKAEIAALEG
Briefly: two-hybrid library CC0.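 Note: natural log of median RNA to DNA barcode read ratio; higher means stronger binding.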 Conditions: mean of both orientations.

Test [3] has as its target T3, O6.
T3 chain: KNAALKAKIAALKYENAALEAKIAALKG
Briefly: two-hybrid library CC0.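 Note: natural log of median RNA to DNA barcode read ratio; higher means stronger binding.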 To be noted: mean of both orientations.

In test [4] the target is T4, O7.
T4 chain: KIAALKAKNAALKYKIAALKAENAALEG
As to the kind of experiment: two-hybrid library CC0.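 Note: natural log of median RNA to DNA barcode read ratio; higher means stronger binding.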 Conditions: mean of both orientations.

Test [5] addresses T5, O8.
T5 chain: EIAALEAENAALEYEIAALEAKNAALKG
As to the kind of experiment: two-hybrid library CC0.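 Note: natural log of median RNA to DNA barcode read ratio; higher means stronger binding.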 To be noted: mean of both orientations.

The target in test [6] is T6, O9.
T6 chain: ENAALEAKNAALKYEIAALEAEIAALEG
Briefly: two-hybrid library CC0.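 Note: natural log of median RNA to DNA barcode read ratio; higher means stronger binding.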 Conditions: mean of both orientations.

The target in a further test is T7, 4H2717-bH.
T7 chain: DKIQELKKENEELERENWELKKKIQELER
As to the kind of experiment: two-hybrid library CCNG1.

The target in a further test is T8, 4H2839-bH.
T8 chain: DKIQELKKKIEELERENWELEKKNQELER
Briefly: two-hybrid library CCNG1.

A further test has as its target T9, 4H2915-bH.
T9 chain: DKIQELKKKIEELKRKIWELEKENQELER
Briefly: two-hybrid library CCNG1.

The next test concerns the target T10, 4H3057-bH.
T10 chain: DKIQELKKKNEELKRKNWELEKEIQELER
Briefly: two-hybrid library CCNG1.

A further test deals with T11, 4H319-bH.
T11 chain: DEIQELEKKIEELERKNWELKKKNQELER
As to the kind of experiment: two-hybrid library CCNG1.

The target of a further test is T12, 4H3277-bH.
T12 chain: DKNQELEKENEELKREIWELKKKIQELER
As to the kind of experiment: two-hybrid library CCNG1.

The target of the next test is T13, 4H348-bH.
T13 chain: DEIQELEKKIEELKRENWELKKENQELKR
As to the kind of experiment: two-hybrid library CCNG1.

A further test concerns the target T14, 4H40-bH.
T14 chain: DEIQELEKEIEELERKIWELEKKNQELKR
As to the kind of experiment: two-hybrid library CCNG1.

The target of the next test is T15, 4H477-bH.
T15 chain: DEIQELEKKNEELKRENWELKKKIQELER
As to the kind of experiment: two-hybrid library CCNG1.

The next test concerns the target T16, 4H492-bH.
T16 chain: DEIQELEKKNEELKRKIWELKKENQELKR
Briefly: two-hybrid library CCNG1.

The next test deals with T17, 4H741-bH.
T17 chain: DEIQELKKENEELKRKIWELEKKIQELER
Briefly: two-hybrid library CCNG1.

The target of another test is T18, 4H3185-bH.
T18 chain: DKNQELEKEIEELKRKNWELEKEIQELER
Briefly: two-hybrid library CCNG1.

The target of a further test is T19, 4H331-bH.
T19 chain: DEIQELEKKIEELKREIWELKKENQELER
As to the kind of experiment: two-hybrid library CCNG1.

For a further test, the target named is T20, 4H3354-bH.
T20 chain: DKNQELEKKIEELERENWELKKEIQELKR
Briefly: two-hybrid library CCNG1.

The target in another test is T21, 4H338-bH.
T21 chain: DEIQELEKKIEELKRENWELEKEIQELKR
As to the kind of experiment: two-hybrid library CCNG1.

The next test deals with T22, 4H3427-bH.
T22 chain: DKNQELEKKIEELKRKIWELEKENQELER
Briefly: two-hybrid library CCNG1.

Another test has as its target T23, 4H3782-bH.
T23 chain: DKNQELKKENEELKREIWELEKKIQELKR
Briefly: two-hybrid library CCNG1.

The next test addresses T24, 4H3855-bH.
T24 chain: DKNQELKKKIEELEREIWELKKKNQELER
Briefly: two-hybrid library CCNG1.

The target in the next test is T25, 4H4001-bN.
T25 chain: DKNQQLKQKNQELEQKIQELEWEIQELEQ
As to the kind of experiment: two-hybrid library CCNG1.

The target in the next test is T26, 4H454-bH.
T26 chain: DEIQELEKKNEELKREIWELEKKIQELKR
As to the kind of experiment: two-hybrid library CCNG1.

For another test, the target named is T27, 4H568-bH.
T27 chain: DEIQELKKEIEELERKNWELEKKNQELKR
Briefly: two-hybrid library CCNG1.

The next test addresses T28, 4H607-bH.
T28 chain: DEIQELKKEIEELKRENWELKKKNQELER
Briefly: two-hybrid library CCNG1.

A further test addresses T29, 4H687-bH.
T29 chain: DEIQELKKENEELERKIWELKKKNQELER
As to the kind of experiment: two-hybrid library CCNG1.

A further test has as its target T30, 4H717-bH.
T30 chain: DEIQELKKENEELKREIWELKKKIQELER
Briefly: two-hybrid library CCNG1.

A further test has as its target T31, 4H72-bH.
T31 chain: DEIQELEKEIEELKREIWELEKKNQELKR
As to the kind of experiment: two-hybrid library CCNG1.

A further test addresses T32, 4H754-bH.
T32 chain: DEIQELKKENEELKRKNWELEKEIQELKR
Briefly: two-hybrid library CCNG1.

The next test has as its target T33, 4H797-bH.
T33 chain: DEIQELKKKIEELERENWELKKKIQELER
Briefly: two-hybrid library CCNG1.

A further test concerns the target T34, 4H883-bH.
T34 chain: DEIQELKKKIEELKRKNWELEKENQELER
Briefly: two-hybrid library CCNG1.

The target in the next test is T35, 4H908-bH.
T35 chain: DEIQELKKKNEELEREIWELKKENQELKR
As to the kind of experiment: two-hybrid library CCNG1.

The next test addresses T36, 4H918-bH.
T36 chain: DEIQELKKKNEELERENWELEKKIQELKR
As to the kind of experiment: two-hybrid library CCNG1.

A further test has as its target T37, 4H953-bH.
T37 chain: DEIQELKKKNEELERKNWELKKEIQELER
As to the kind of experiment: two-hybrid library CCNG1.

For another test, the target named is T38, 4H967-bH.
T38 chain: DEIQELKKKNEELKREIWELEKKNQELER
Briefly: two-hybrid library CCNG1.

Another test deals with T39, 4H3112-bH.
T39 chain: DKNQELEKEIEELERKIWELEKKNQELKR
Briefly: two-hybrid library CCNG1.

The target of the next test is T40, 4H319-bA.
T40 chain: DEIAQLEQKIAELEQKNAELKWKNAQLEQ
As to the kind of experiment: two-hybrid library CCNG1.

For a further test, the target named is T41, 4H346-bH.
T41 chain: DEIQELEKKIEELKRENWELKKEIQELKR
As to the kind of experiment: two-hybrid library CCNG1.

The next test addresses T42, 4H3926-bH.
T42 chain: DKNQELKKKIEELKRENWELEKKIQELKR
Briefly: two-hybrid library CCNG1.

In the next test the target is T43, 4H4001-bH.
T43 chain: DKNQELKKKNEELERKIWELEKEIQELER
Briefly: two-hybrid library CCNG1.

For a further test, the target named is T44, 4H4073-bH.
T44 chain: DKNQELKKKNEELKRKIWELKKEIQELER
As to the kind of experiment: two-hybrid library CCNG1.

Another test concerns the target T45, 4H457-bH.
T45 chain: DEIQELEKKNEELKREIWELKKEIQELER
Briefly: two-hybrid library CCNG1.

The target of another test is T46, 4H575-bH.
T46 chain: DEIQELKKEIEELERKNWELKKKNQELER
Briefly: two-hybrid library CCNG1.

The target of a further test is T47, 4H683-bH.
T47 chain: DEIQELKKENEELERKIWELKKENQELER
Briefly: two-hybrid library CCNG1.

In a further test the target is T48, 4H780-bH.
T48 chain: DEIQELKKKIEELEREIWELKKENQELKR
As to the kind of experiment: two-hybrid library CCNG1.

The next test has as its target T49, 4H855-bH.
T49 chain: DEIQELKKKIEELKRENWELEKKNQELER
Briefly: two-hybrid library CCNG1.

The target of another test is T50, 4H968-bH.
T50 chain: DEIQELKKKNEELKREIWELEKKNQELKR
As to the kind of experiment: two-hybrid library CCNG1.

Another test concerns the target T51, O3.
T51 chain: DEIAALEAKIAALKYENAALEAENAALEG
Briefly: two-hybrid library CCNG1.

Test [7] deals with T52, O4.
T52 chain: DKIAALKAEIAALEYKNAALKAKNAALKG
Briefly: two-hybrid library CCNG1.

For test [8], the target named is T53, O5.
T53 chain: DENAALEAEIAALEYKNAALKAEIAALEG
As to the kind of experiment: two-hybrid library CCNG1.

The target in test [9] is T54, O6.
T54 chain: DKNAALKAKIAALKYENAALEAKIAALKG
As to the kind of experiment: two-hybrid library CCNG1.

In test [10] the target is T55, O7.
T55 chain: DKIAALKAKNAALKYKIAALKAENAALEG
As to the kind of experiment: two-hybrid library CCNG1.

Test [11] has as its target T56, O8.
T56 chain: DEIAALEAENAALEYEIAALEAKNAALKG
Briefly: two-hybrid library CCNG1.

Test [12] concerns the target T57, O9.
T57 chain: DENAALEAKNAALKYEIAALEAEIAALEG
Briefly: two-hybrid library CCNG1.

Regarding KIAALKAEIAALEYKNAALKAKNAALKG [O4], the interaction score is -2.65 with O4 [1]; -2.68 in the test with O5 [2]; -2.42 in the test with O6 [3]; -2.75 with O7 [4]; -2.63 with O8 [5]; -2.71 in the test with O9 [6].
Regarding DKIQELKKENEELERENWELKKKIQELER [4H2717-bH], the interaction score with 4H2717-bH was 1.16; in the test with 4H2839-bH, -0.51; with 4H2915-bH, -0.399; in the test with 4H3057-bH, -0.185; with 4H319-bH, -0.701; in the test with 4H3277-bH, -0.479. For the same molecule, the interaction score in the test with 4H348-bH is -0.364; with 4H40-bH it was -0.815; with 4H477-bH it was 1.38; with 4H492-bH, -0.752; with 4H741-bH, -1.79.
As to DKNQELEKEIEELKRKNWELEKEIQELER [4H3185-bH], the interaction score with 4H3185-bH is 0.0268; in the test with 4H331-bH, -0.701; in the test with 4H3354-bH it was -0.583; with 4H338-bH, -0.56; with 4H3427-bH, -0.801; with 4H3782-bH, -0.522. In addition, the interaction score in the test with 4H3855-bH was -0.899; with 4H4001-bN it was 0; with 4H454-bH it was -1.16; in the test with 4H568-bH, -2.61; in the test with 4H607-bH, -0.833; in the test with 4H687-bH it was -0.899. For the same molecule, the interaction score in the test with 4H717-bH was -0.724; with 4H72-bH it was -1.26; with 4H754-bH, -1.15; with 4H797-bH, -1.22; in the test with 4H883-bH it was -0.72; with 4H908-bH it was -0.797. The interaction score with 4H918-bH was -1.09; with 4H953-bH, -1.21; with 4H967-bH, -1.56.
For DKNQELEKEIEELERKIWELEKKNQELKR [4H3112-bH], the interaction score in the test with 4H3112-bH is 1.18; with 4H3185-bH it was -0.575; with 4H319-bA, -3.07; with 4H331-bH, 0.991; with 4H3354-bH, 0.156; with 4H338-bH it was 1.72. For the same molecule, the interaction score with 4H3427-bH stood at 1.07; with 4H346-bH it was 0.584; in the test with 4H3782-bH, 0.0549; with 4H3855-bH, 0.754; with 4H3926-bH it was 0.42; with 4H4001-bH, 0.971. Further, the interaction score is 1.57 with 4H4073-bH; 0.624 with 4H454-bH; -1.29 with 4H457-bH; -0.443 in the test with 4H568-bH; -0.872 in the test with 4H575-bH; 0.768 in the test with 4H607-bH. Besides, the interaction score was 0.204 with 4H683-bH; -0.713 with 4H687-bH; -0.259 in the test with 4H717-bH; 0.428 with 4H72-bH; 0.704 with 4H780-bH; -0.951 with 4H797-bH. In addition, the interaction score in the test with 4H855-bH is -2.78; in the test with 4H883-bH, 0.871; with 4H908-bH, -0.43; with 4H918-bH, 0.72; with 4H953-bH, -0.641; with 4H967-bH, 1.34. This molecule also yielded an interaction score with 4H968-bH of 1.05.
For DEIAALEAKIAALKYENAALEAENAALEG [O3], the interaction score with O3 is -2.29; with O4 [7], 2.05; with O5 [8], -2; in the test with O6 [9], -2.73; with O7 [10] it was -2.58; in the test with O8 [11], -2.29. In addition, the interaction score in the test with O9 [12] was -2.28.

Values taken from article PMC10397247.
